Assay results: patent US20250257336A1, “ISOLATED OR ENGINEERED POLYPEPTIDES, MICROORGANISMS AS WELL AS METHOD FOR SYNTHESIZING POLYPHENOLIC PHYTOCHEMICALS PHOSPHATE DERIVATIVE USING THE POLYPEPTIDES OR MICROORGANISMS” (National Taiwan University, priority 2021, published 2025)

Experiment: enzymatic activity of the PPS of interest and its protein mutant strains, genistein as substrate (G7P formation, HPLC)
Type: biochemical
Details: Mg2+/ATP, 40° C., 10 minutes, pH 7.8, FIG. 30
Procedure: After vibration-based mixing and centrifugation (13,000 rpm, 4° C., 5 minutes), the resulting supernatant was collected, diluted, and then analyzed by HPLC. The activity unit was defined as the amount of enzyme required to yield 1 nmol of product per unit time.
Once an enzyme was prepared, its protein concentration was diluted to 0.1 mg/mL. The enzyme and the enzyme reaction liquid were mixed at a ratio of 1:1 (v/v) and were allowed to react at 40° C. for 10 minutes, at the end of which methanol was added to dilute the protein tenfold and thereby terminate the reaction. The changes in concentration of genistein (GEN) and G7P (a product of GEN phosphorylation) were analyzed. The catalytic activity of the PPS of interest in the present invention and its mutant strains were subsequently calculated and compared, as shown in FIG. 30. […] The activity test results of other protein mutant strains show no total loss of activity but a trend of decrease in activity. […] However, while the aforesaid important catalytic sites in the active domain for stabilizing the phosphate group were inferred with relatively great certainty, the amino acids in Arm1 either had relatively poor prediction results or had important catalytic sites composed of non-polar amino acids (which when substituted with Ala produce little change in property) such that the combined use of site-directed mutagenesis and enzymatic activity determination lacked accuracy.

Molecule	catalytic activity (relative specific activity) compared with the PPS of interest
K27A: site-directed mutant of the PPS of interest (SEQ ID NO: 13), Lys27 substituted with Ala (protein, listed as Bacillus subtilis) MKKRGVSNMYSVLFRQAEESSQLAGAAGMNLIKLTKHGLPVPDGFIIQTNALARFMEDNQLQETSENVESGIISGTFSDELKDELTSSFYKLRESYRSVAVRSSSASEDLEGASFAGQYETYLNIKTEEEFLAKVKECWASFFSGRVSSYKKKMNNQIAEPLMGIVVQGLIDSEMSGVIFSRNPVTHDDRELLISASYGLGEAVVSGSVTPDTFIVNKSSFEIQKEIGAKEIYMESAAEGIAEKETSEDMRSRFCLTDEQVIELAEITKKTEDLYGYPVDIEFGIADHQIYLLQARPITTIDQDKKAAEEKRSFMITDTDMNDFWLNMESNIEGPVSPLFSSFIVPALEYGLKKSMQKFPIGVVVDEVKLYRGHIYSKNQGGQQPPSEDCGKELFPILSEHMYDIINHTYLPFYRTLDQLAQTEHTAESALDAFQKLKAFYLTAYEEHFNIVFPQILLTNKLQAMYQDIQGESENAHFYEMLTGKMNKSLETDRCLWLFSMEVQENPNLLTIFENNKPEQLQEKLEQTDEGRHFLKNVHEFLQEYGWRSVKSHDLIEQIWVENPYFALANIQNYVRNGYHFDNEFQKTKEKREKLYNEFLENIEDPGLRTEFDRYYQWTLNSANIKDDHHFYIDAMLDAKARIFLLKIGELLAENGVIQDREDLWFLYDDEVEQALLHPVSLQEKAEKRRQIFHEYELAQAPAYLGTPTKEQLKAAEEIVGAVIEDEKNTENHIFGIAASSGIATGPVKIIRDANEFSQFAPGDVLVCKMTTPLWTSLFQDAKAIITDTGGILSHAAIIAREYGIPAVLGTRTATERLRDGDIITVDGSSGKITVVSRS	lost its activity
E329A: site-directed mutant of the PPS of interest, Glu329 substituted with Ala (protein) MKKRGVSNMYSVLFRQAEESSQLAGAKGMNLIKLTKHGLPVPDGFIIQTNALARFMEDNQLQETSENVESGIISGTFSDELKDELTSSFYKLRESYRSVAVRSSSASEDLEGASFAGQYETYLNIKTEEEFLAKVKECWASFFSGRVSSYKKKMNNQIAEPLMGIVVQGLIDSEMSGVIFSRNPVTHDDRELLISASYGLGEAVVSGSVTPDTFIVNKSSFEIQKEIGAKEIYMESAAEGIAEKETSEDMRSRFCLTDEQVIELAEITKKTEDLYGYPVDIEFGIADHQIYLLQARPITTIDQDKKAAEEKRSFMITDTDMNDFWLNMASNIEGPVSPLFSSFIVPALEYGLKKSMQKFPIGVVVDEVKLYRGHIYSKNQGGQQPPSEDCGKELFPILSEHMYDIINHTYLPFYRTLDQLAQTEHTAESALDAFQKLKAFYLTAYEEHFNIVFPQILLTNKLQAMYQDIQGESENAHFYEMLTGKMNKSLETDRCLWLFSMEVQENPNLLTIFENNKPEQLQEKLEQTDEGRHFLKNVHEFLQEYGWRSVKSHDLIEQIWVENPYFALANIQNYVRNGYHFDNEFQKTKEKREKLYNEFLENIEDPGLRTEFDRYYQWTLNSANIKDDHHFYIDAMLDAKARIFLLKIGELLAENGVIQDREDLWFLYDDEVEQALLHPVSLQEKAEKRRQIFHEYELAQAPAYLGTPTKEQLKAAEEIVGAVIEDEKNTENHIFGIAASSGIATGPVKIIRDANEFSQFAPGDVLVCKMTTPLWTSLFQDAKAIITDTGGILSHAAIIAREYGIPAVLGTRTATERLRDGDIITVDGSSGKITVVSRS	relatively significant decrease in activity
D627A: site-directed mutant of the PPS of interest, Asp627 substituted with Ala (protein) MKKRGVSNMYSVLFRQAEESSQLAGAKGMNLIKLTKHGLPVPDGFIIQTNALARFMEDNQLQETSENVESGIISGTFSDELKDELTSSFYKLRESYRSVAVRSSSASEDLEGASFAGQYETYLNIKTEEEFLAKVKECWASFFSGRVSSYKKKMNNQIAEPLMGIVVQGLIDSEMSGVIFSRNPVTHDDRELLISASYGLGEAVVSGSVTPDTFIVNKSSFEIQKEIGAKEIYMESAAEGIAEKETSEDMRSRFCLTDEQVIELAEITKKTEDLYGYPVDIEFGIADHQIYLLQARPITTIDQDKKAAEEKRSFMITDTDMNDFWLNMESNIEGPVSPLFSSFIVPALEYGLKKSMQKFPIGVVVDEVKLYRGHIYSKNQGGQQPPSEDCGKELFPILSEHMYDIINHTYLPFYRTLDQLAQTEHTAESALDAFQKLKAFYLTAYEEHFNIVFPQILLTNKLQAMYQDIQGESENAHFYEMLTGKMNKSLETDRCLWLFSMEVQENPNLLTIFENNKPEQLQEKLEQTDEGRHFLKNVHEFLQEYGWRSVKSHDLIEQIWVENPYFALANIQNYVRNGYHFDNEFQKTKEKREKLYNEFLENIEDPGLRTEFDRYYQWTLNSANIKADHHFYIDAMLDAKARIFLLKIGELLAENGVIQDREDLWFLYDDEVEQALLHPVSLQEKAEKRRQIFHEYELAQAPAYLGTPTKEQLKAAEEIVGAVIEDEKNTENHIFGIAASSGIATGPVKIIRDANEFSQFAPGDVLVCKMTTPLWTSLFQDAKAIITDTGGILSHAAIIAREYGIPAVLGTRTATERLRDGDIITVDGSSGKITVVSRS	significant decrease in protein activity
H630A: site-directed mutant of the PPS of interest, His630 substituted with Ala (protein) MKKRGVSNMYSVLFRQAEESSQLAGAKGMNLIKLTKHGLPVPDGFIIQTNALARFMEDNQLQETSENVESGIISGTFSDELKDELTSSFYKLRESYRSVAVRSSSASEDLEGASFAGQYETYLNIKTEEEFLAKVKECWASFFSGRVSSYKKKMNNQIAEPLMGIVVQGLIDSEMSGVIFSRNPVTHDDRELLISASYGLGEAVVSGSVTPDTFIVNKSSFEIQKEIGAKEIYMESAAEGIAEKETSEDMRSRFCLTDEQVIELAEITKKTEDLYGYPVDIEFGIADHQIYLLQARPITTIDQDKKAAEEKRSFMITDTDMNDFWLNMESNIEGPVSPLFSSFIVPALEYGLKKSMQKFPIGVVVDEVKLYRGHIYSKNQGGQQPPSEDCGKELFPILSEHMYDIINHTYLPFYRTLDQLAQTEHTAESALDAFQKLKAFYLTAYEEHFNIVFPQILLTNKLQAMYQDIQGESENAHFYEMLTGKMNKSLETDRCLWLFSMEVQENPNLLTIFENNKPEQLQEKLEQTDEGRHFLKNVHEFLQEYGWRSVKSHDLIEQIWVENPYFALANIQNYVRNGYHFDNEFQKTKEKREKLYNEFLENIEDPGLRTEFDRYYQWTLNSANIKDDHAFYIDAMLDAKARIFLLKIGELLAENGVIQDREDLWFLYDDEVEQALLHPVSLQEKAEKRRQIFHEYELAQAPAYLGTPTKEQLKAAEEIVGAVIEDEKNTENHIFGIAASSGIATGPVKIIRDANEFSQFAPGDVLVCKMTTPLWTSLFQDAKAIITDTGGILSHAAIIAREYGIPAVLGTRTATERLRDGDIITVDGSSGKITVVSRS	significant decrease in protein activity
H629A: site-directed mutant of the PPS of interest, His629 substituted with Ala (protein) MKKRGVSNMYSVLFRQAEESSQLAGAKGMNLIKLTKHGLPVPDGFIIQTNALARFMEDNQLQETSENVESGIISGTFSDELKDELTSSFYKLRESYRSVAVRSSSASEDLEGASFAGQYETYLNIKTEEEFLAKVKECWASFFSGRVSSYKKKMNNQIAEPLMGIVVQGLIDSEMSGVIFSRNPVTHDDRELLISASYGLGEAVVSGSVTPDTFIVNKSSFEIQKEIGAKEIYMESAAEGIAEKETSEDMRSRFCLTDEQVIELAEITKKTEDLYGYPVDIEFGIADHQIYLLQARPITTIDQDKKAAEEKRSFMITDTDMNDFWLNMESNIEGPVSPLFSSFIVPALEYGLKKSMQKFPIGVVVDEVKLYRGHIYSKNQGGQQPPSEDCGKELFPILSEHMYDIINHTYLPFYRTLDQLAQTEHTAESALDAFQKLKAFYLTAYEEHFNIVFPQILLTNKLQAMYQDIQGESENAHFYEMLTGKMNKSLETDRCLWLFSMEVQENPNLLTIFENNKPEQLQEKLEQTDEGRHFLKNVHEFLQEYGWRSVKSHDLIEQIWVENPYFALANIQNYVRNGYHFDNEFQKTKEKREKLYNEFLENIEDPGLRTEFDRYYQWTLNSANIKDDAHFYIDAMLDAKARIFLLKIGELLAENGVIQDREDLWFLYDDEVEQALLHPVSLQEKAEKRRQIFHEYELAQAPAYLGTPTKEQLKAAEEIVGAVIEDEKNTENHIFGIAASSGIATGPVKIIRDANEFSQFAPGDVLVCKMTTPLWTSLFQDAKAIITDTGGILSHAAIIAREYGIPAVLGTRTATERLRDGDIITVDGSSGKITVVSRS	significant decrease in protein activity
H795A: site-directed mutant of the PPS of interest, His795 substituted with Ala (protein) MKKRGVSNMYSVLFRQAEESSQLAGAKGMNLIKLTKHGLPVPDGFIIQTNALARFMEDNQLQETSENVESGIISGTFSDELKDELTSSFYKLRESYRSVAVRSSSASEDLEGASFAGQYETYLNIKTEEEFLAKVKECWASFFSGRVSSYKKKMNNQIAEPLMGIVVQGLIDSEMSGVIFSRNPVTHDDRELLISASYGLGEAVVSGSVTPDTFIVNKSSFEIQKEIGAKEIYMESAAEGIAEKETSEDMRSRFCLTDEQVIELAEITKKTEDLYGYPVDIEFGIADHQIYLLQARPITTIDQDKKAAEEKRSFMITDTDMNDFWLNMESNIEGPVSPLFSSFIVPALEYGLKKSMQKFPIGVVVDEVKLYRGHIYSKNQGGQQPPSEDCGKELFPILSEHMYDIINHTYLPFYRTLDQLAQTEHTAESALDAFQKLKAFYLTAYEEHFNIVFPQILLTNKLQAMYQDIQGESENAHFYEMLTGKMNKSLETDRCLWLFSMEVQENPNLLTIFENNKPEQLQEKLEQTDEGRHFLKNVHEFLQEYGWRSVKSHDLIEQIWVENPYFALANIQNYVRNGYHFDNEFQKTKEKREKLYNEFLENIEDPGLRTEFDRYYQWTLNSANIKDDHHFYIDAMLDAKARIFLLKIGELLAENGVIQDREDLWFLYDDEVEQALLHPVSLQEKAEKRRQIFHEYELAQAPAYLGTPTKEQLKAAEEIVGAVIEDEKNTENHIFGIAASSGIATGPVKIIRDANEFSQFAPGDVLVCKMTTPLWTSLFQDAKAIITDTGGILSAAAIIAREYGIPAVLGTRTATERLRDGDIITVDGSSGKITVVSRS	total loss of PPS activity
